From US10919943B2, “Mutant proteins enabling agrochemical control of plant gene expression” (The Regents of the University of California, priority 2016, dated 2021) come the findings set out here.

The target of the test is T1, PYR1 (Arabidopsis thaliana, UniProt O49686).
T1 construct: expressed in transfected cells; host or cells: S. cerevisiae strain Y190
T1 sequence (O49686 1-191): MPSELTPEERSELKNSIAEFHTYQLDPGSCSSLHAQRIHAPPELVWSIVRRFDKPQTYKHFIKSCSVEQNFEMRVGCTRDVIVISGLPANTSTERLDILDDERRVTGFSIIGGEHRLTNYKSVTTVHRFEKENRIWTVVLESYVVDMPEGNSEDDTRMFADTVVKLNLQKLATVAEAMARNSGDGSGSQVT
Description: Yeast two hybrid of pACT-HAB1 site saturation mutants with pBD-PYR1 on 10 μM ABA, β-galactosidase staining. Format: cell-based. Details: key: x: Mutations in HAB1 that disrupt HAB1 interaction with PYR1. The following applies: S. cerevisiae Y190, 10 μM ABA; dead = lack of detectable staining in comparison to wild type control. An excerpt: To systematically define mutations in HAB1 that disrupt its binding to PYR1, we used site saturation mutagenesis to create a collection all possible single amino acid substitutions in 20 residues lining the PYR1 binding interface, and then assayed the ability of each mutant to bind PYR1 using the yeast two hybrid assay described above. We targeted the following residues for mutagenesis: R199, 5200, E201, E203, H245, G246, G247, S322, E323, T324, K381, I383, Q384, W385, Q386, R389, F391, G392, V393, and Y404. To create the collection of mutations, mutagenic “NNK” site directed mutagenesis primers were synthesized for each of the 20 positions and the primers used in QuickChange site-directed mutagenesis reactions using a previously described pACT-HAB1 template (Park et al., 2009). We note that this clone uses a HAB1 cDNA lacking its three N-terminal amino acids. The reaction products were digested with DpnI, and transformed into competent Escherichia coli DH5α cells and plasmid DNA for 96 colonies per site was isolated using Bioneer AccuPrep® Plasmid Mini Extraction Kit (Alameda, Calif.) and sequenced to identify mutants. This process identified most of the 19 desired mutations per target site; the remaining mutations were constructed directly using specific mutagenic primers. To interrogate the effects of the mutations on PYR1-HAB1 interactions, the mutant clones were individually transformed into S. cerevisiae strain Y190 containing pBD-PYR1 (Park et al., 2009). Yeast transformants were selected for the presence of plasmids on selective SD (-Leu,-Trp) plates and then spotted onto SD (-Leu,-Trp) agar plates supplemented with 10 μM ABA. After incubating the test plates at 30° C. for two days, the colonies were lysed with chloroform and stained to reveal […] expression levels. “Dead” mutants were defined by lack of detectable staining in comparison to a wild type pBD-PYR1/pACT-HAB1 control. This screening effort defined 163 mutations that disrupt the ABA-induced PYR1/HAB1 interaction (Table 2).

B1: R389P: HAB1 mutant (protein, UniProt Q9CAJ0 23-511, looked up, variant R389P)
Protein phosphatase 2C 16: SPVEITQLKNVTDAADLLSDSENQSFCNGGTECTMEDVSELEEVGEQDLLKTLSDTRSGSSNVFDEDDVLSVVEDNSAVISEGLLVVDAGSELSLSNTAMEIDNGRVLATAIIVGESSIEQVPTAEVLIAGVNQDTNTSEVVIRLPDENSNHLVKGRSVYELDCIPLWGTVSIQGNRSEMEDAFAVSPHFLKLPIKMLMGDHEGMSPSLTHLTGHFFGVYDGHGGHKVADYCRDRLHFALAEEIERIKDELCKRNTGEGRQVQWDKVFTSCFLTVDGEIEGKIGRAVVGSSDKVLEAVASETVGSTAVVALVCSSHIVVSNCGDSRAVLFRGKEAMPLSVDHKPDREDEYARIENAGGKVIQWQGAPVFGVLAMSRSIGDRYLKPYVIPEPEVTFMPRSREDECLILASDGLWDVMNNQEVCEIARRRILMWHKKNGAPPLAERGKGIDPACQAAADYLSMLALQKGSKDNISIIVIDLKAQRKFKTRT
For the molecule B1, the “Mutations in HAB1 that disrupt HAB1 interaction with PYR1” value (from here on “Mutations”) is on record as “x”.

B2: R389D: HAB1 mutant (protein, UniProt Q9CAJ0 23-511, looked up, variant R389D)
Protein phosphatase 2C 16: SPVEITQLKNVTDAADLLSDSENQSFCNGGTECTMEDVSELEEVGEQDLLKTLSDTRSGSSNVFDEDDVLSVVEDNSAVISEGLLVVDAGSELSLSNTAMEIDNGRVLATAIIVGESSIEQVPTAEVLIAGVNQDTNTSEVVIRLPDENSNHLVKGRSVYELDCIPLWGTVSIQGNRSEMEDAFAVSPHFLKLPIKMLMGDHEGMSPSLTHLTGHFFGVYDGHGGHKVADYCRDRLHFALAEEIERIKDELCKRNTGEGRQVQWDKVFTSCFLTVDGEIEGKIGRAVVGSSDKVLEAVASETVGSTAVVALVCSSHIVVSNCGDSRAVLFRGKEAMPLSVDHKPDREDEYARIENAGGKVIQWQGADVFGVLAMSRSIGDRYLKPYVIPEPEVTFMPRSREDECLILASDGLWDVMNNQEVCEIARRRILMWHKKNGAPPLAERGKGIDPACQAAADYLSMLALQKGSKDNISIIVIDLKAQRKFKTRT
For the molecule B2, the “Mutations” value was “x”.

B3: R389T: HAB1 mutant (protein, UniProt Q9CAJ0 23-511, looked up, variant R389T)
Protein phosphatase 2C 16: SPVEITQLKNVTDAADLLSDSENQSFCNGGTECTMEDVSELEEVGEQDLLKTLSDTRSGSSNVFDEDDVLSVVEDNSAVISEGLLVVDAGSELSLSNTAMEIDNGRVLATAIIVGESSIEQVPTAEVLIAGVNQDTNTSEVVIRLPDENSNHLVKGRSVYELDCIPLWGTVSIQGNRSEMEDAFAVSPHFLKLPIKMLMGDHEGMSPSLTHLTGHFFGVYDGHGGHKVADYCRDRLHFALAEEIERIKDELCKRNTGEGRQVQWDKVFTSCFLTVDGEIEGKIGRAVVGSSDKVLEAVASETVGSTAVVALVCSSHIVVSNCGDSRAVLFRGKEAMPLSVDHKPDREDEYARIENAGGKVIQWQGATVFGVLAMSRSIGDRYLKPYVIPEPEVTFMPRSREDECLILASDGLWDVMNNQEVCEIARRRILMWHKKNGAPPLAERGKGIDPACQAAADYLSMLALQKGSKDNISIIVIDLKAQRKFKTRT
As to B3, the “Mutations” value is “x”.

B4: R389C: HAB1 mutant (protein, UniProt Q9CAJ0 23-511, looked up, variant R389C)
Protein phosphatase 2C 16: SPVEITQLKNVTDAADLLSDSENQSFCNGGTECTMEDVSELEEVGEQDLLKTLSDTRSGSSNVFDEDDVLSVVEDNSAVISEGLLVVDAGSELSLSNTAMEIDNGRVLATAIIVGESSIEQVPTAEVLIAGVNQDTNTSEVVIRLPDENSNHLVKGRSVYELDCIPLWGTVSIQGNRSEMEDAFAVSPHFLKLPIKMLMGDHEGMSPSLTHLTGHFFGVYDGHGGHKVADYCRDRLHFALAEEIERIKDELCKRNTGEGRQVQWDKVFTSCFLTVDGEIEGKIGRAVVGSSDKVLEAVASETVGSTAVVALVCSSHIVVSNCGDSRAVLFRGKEAMPLSVDHKPDREDEYARIENAGGKVIQWQGACVFGVLAMSRSIGDRYLKPYVIPEPEVTFMPRSREDECLILASDGLWDVMNNQEVCEIARRRILMWHKKNGAPPLAERGKGIDPACQAAADYLSMLALQKGSKDNISIIVIDLKAQRKFKTRT
As for B4, the “Mutations” value is “x”.

B5: R389R: HAB1, x printed at the wild-type residue; see doubts (protein, UniProt Q9CAJ0 23-511, looked up)
Protein phosphatase 2C 16: SPVEITQLKNVTDAADLLSDSENQSFCNGGTECTMEDVSELEEVGEQDLLKTLSDTRSGSSNVFDEDDVLSVVEDNSAVISEGLLVVDAGSELSLSNTAMEIDNGRVLATAIIVGESSIEQVPTAEVLIAGVNQDTNTSEVVIRLPDENSNHLVKGRSVYELDCIPLWGTVSIQGNRSEMEDAFAVSPHFLKLPIKMLMGDHEGMSPSLTHLTGHFFGVYDGHGGHKVADYCRDRLHFALAEEIERIKDELCKRNTGEGRQVQWDKVFTSCFLTVDGEIEGKIGRAVVGSSDKVLEAVASETVGSTAVVALVCSSHIVVSNCGDSRAVLFRGKEAMPLSVDHKPDREDEYARIENAGGKVIQWQGARVFGVLAMSRSIGDRYLKPYVIPEPEVTFMPRSREDECLILASDGLWDVMNNQEVCEIARRRILMWHKKNGAPPLAERGKGIDPACQAAADYLSMLALQKGSKDNISIIVIDLKAQRKFKTRT
As to B5, the “Mutations” value is “x”.

B6: R389W: HAB1 mutant (protein, UniProt Q9CAJ0 23-511, looked up, variant R389W)
Protein phosphatase 2C 16: SPVEITQLKNVTDAADLLSDSENQSFCNGGTECTMEDVSELEEVGEQDLLKTLSDTRSGSSNVFDEDDVLSVVEDNSAVISEGLLVVDAGSELSLSNTAMEIDNGRVLATAIIVGESSIEQVPTAEVLIAGVNQDTNTSEVVIRLPDENSNHLVKGRSVYELDCIPLWGTVSIQGNRSEMEDAFAVSPHFLKLPIKMLMGDHEGMSPSLTHLTGHFFGVYDGHGGHKVADYCRDRLHFALAEEIERIKDELCKRNTGEGRQVQWDKVFTSCFLTVDGEIEGKIGRAVVGSSDKVLEAVASETVGSTAVVALVCSSHIVVSNCGDSRAVLFRGKEAMPLSVDHKPDREDEYARIENAGGKVIQWQGAWVFGVLAMSRSIGDRYLKPYVIPEPEVTFMPRSREDECLILASDGLWDVMNNQEVCEIARRRILMWHKKNGAPPLAERGKGIDPACQAAADYLSMLALQKGSKDNISIIVIDLKAQRKFKTRT
For the molecule B6, the “Mutations” value was “x”.

B7: R389Y: HAB1 mutant (protein, UniProt Q9CAJ0 23-511, looked up, variant R389Y)
Protein phosphatase 2C 16: SPVEITQLKNVTDAADLLSDSENQSFCNGGTECTMEDVSELEEVGEQDLLKTLSDTRSGSSNVFDEDDVLSVVEDNSAVISEGLLVVDAGSELSLSNTAMEIDNGRVLATAIIVGESSIEQVPTAEVLIAGVNQDTNTSEVVIRLPDENSNHLVKGRSVYELDCIPLWGTVSIQGNRSEMEDAFAVSPHFLKLPIKMLMGDHEGMSPSLTHLTGHFFGVYDGHGGHKVADYCRDRLHFALAEEIERIKDELCKRNTGEGRQVQWDKVFTSCFLTVDGEIEGKIGRAVVGSSDKVLEAVASETVGSTAVVALVCSSHIVVSNCGDSRAVLFRGKEAMPLSVDHKPDREDEYARIENAGGKVIQWQGAYVFGVLAMSRSIGDRYLKPYVIPEPEVTFMPRSREDECLILASDGLWDVMNNQEVCEIARRRILMWHKKNGAPPLAERGKGIDPACQAAADYLSMLALQKGSKDNISIIVIDLKAQRKFKTRT
Turning to B7, the “Mutations” value is “x”.

B8: R389Q: HAB1 mutant (protein, UniProt Q9CAJ0 23-511, looked up, variant R389Q)
Protein phosphatase 2C 16: SPVEITQLKNVTDAADLLSDSENQSFCNGGTECTMEDVSELEEVGEQDLLKTLSDTRSGSSNVFDEDDVLSVVEDNSAVISEGLLVVDAGSELSLSNTAMEIDNGRVLATAIIVGESSIEQVPTAEVLIAGVNQDTNTSEVVIRLPDENSNHLVKGRSVYELDCIPLWGTVSIQGNRSEMEDAFAVSPHFLKLPIKMLMGDHEGMSPSLTHLTGHFFGVYDGHGGHKVADYCRDRLHFALAEEIERIKDELCKRNTGEGRQVQWDKVFTSCFLTVDGEIEGKIGRAVVGSSDKVLEAVASETVGSTAVVALVCSSHIVVSNCGDSRAVLFRGKEAMPLSVDHKPDREDEYARIENAGGKVIQWQGAQVFGVLAMSRSIGDRYLKPYVIPEPEVTFMPRSREDECLILASDGLWDVMNNQEVCEIARRRILMWHKKNGAPPLAERGKGIDPACQAAADYLSMLALQKGSKDNISIIVIDLKAQRKFKTRT
For the molecule B8, the “Mutations” value was “x”.

B9: R389V: HAB1 mutant (protein, UniProt Q9CAJ0 23-511, looked up, variant R389V)
Protein phosphatase 2C 16: SPVEITQLKNVTDAADLLSDSENQSFCNGGTECTMEDVSELEEVGEQDLLKTLSDTRSGSSNVFDEDDVLSVVEDNSAVISEGLLVVDAGSELSLSNTAMEIDNGRVLATAIIVGESSIEQVPTAEVLIAGVNQDTNTSEVVIRLPDENSNHLVKGRSVYELDCIPLWGTVSIQGNRSEMEDAFAVSPHFLKLPIKMLMGDHEGMSPSLTHLTGHFFGVYDGHGGHKVADYCRDRLHFALAEEIERIKDELCKRNTGEGRQVQWDKVFTSCFLTVDGEIEGKIGRAVVGSSDKVLEAVASETVGSTAVVALVCSSHIVVSNCGDSRAVLFRGKEAMPLSVDHKPDREDEYARIENAGGKVIQWQGAVVFGVLAMSRSIGDRYLKPYVIPEPEVTFMPRSREDECLILASDGLWDVMNNQEVCEIARRRILMWHKKNGAPPLAERGKGIDPACQAAADYLSMLALQKGSKDNISIIVIDLKAQRKFKTRT
B9: the “Mutations” value is on record as “x”.
